# Experiment: soluble on expression in E. coli; label from the status in PepcDB or PDB records
row,Sequence,soluble on expression in E. coli
1,MGSDKIHHHHHHMAKSDLIVGLDIGTTKICCVVGEPTEEGIDIVGIGTSPSTGLRKGVVVNIEQTVQSIKKALEEAELMAGCEIRSVYAGIAGSHIKGANSDGVIAVKGGEVAPRDVERVLDAAKALNIPMDREVIHILPQEYIVDEQRGIADPLGMAGVRLEVKVHIVTGAVASAQNIVRSCHRSGLDVSDIVLEALASSKAVLTEEEREIGVALVDLGGGTTDIAVFANDSIKHTGVLALGGQNLTNDIAFGLRTPMASAEKIKIKYGCAMAEMVRDDEGIEVASVGDREPRRLSRQVLAEICEPRMEEILSLVDQELVRYGFKNMIGAGVVLTGGTALIEGCQELGEQIFNLPTRIGYPRNVGGLKDVVNSPKFATAVGLLCYGAEKEGLELKFRIRDGNMFNRVLSRMRKWFSDIS,not soluble
2,MSLIGETINKLKVIKESSKRDKSRCKMYECLCECGEVIIVRSSTLRQGKIKSCGCESNKIHSELMRERNTTHGLSSNPMYQRWLGMKQRCYDVNAINYKNYGGRGIEICEEWKNDFKKFYDYMGDPPNENYQIDRINNDGNYEPGNVKWSTRSENSTNIRKKSTHNIYKKSNNVYNIQIVRKNKVKYFSAKSLEEAIELRDNVINKYNETGEGHHHHHH,not soluble
3,MGKQRECLVIVEGYDPYVVKVSHDATSYSDYKTGRELPFTIIRMNGFSDSEGVYCCIASDKSMEDHTDEARALLKAYKVKPL,not soluble
4,GPGSMSTSKEAADQSRKFGFKESREQYQQRKRQEKQLKWTERLSKEDLGKLRIELDSLKRARFLAPQQNERKCLVHRMIRDLEAAENKEPKEETPVVATMPSALDSDSDDDIFSGKGTLTNDEHKRLFIPRSVRKKPEEKKCEKTAQQLAGEAERELLAAVHDDDDLDSFLDSLR,soluble
5,MSLVLSAGRLNKNSLGIAVLLCTGLLLAGCSSNSGSGTYSGSVYTVKRGDTLYRISRATGTSVKELARLNGISPPYTIEVGQRIKVRGSAKSSTSTRKTSNKTATKTAAVRPSSSVPKSSWPPVGQRCWVWPANGKVILPYSTAEGGNKGIDIAGARGTPVYAAGAGKVVYVGNQLRGYGNLIMIKHNEDYITAYAHNDTMLVNNGQSVKAGQKIATMGSTDAASVRLHFQIRYRATAIDPLRYLPPQGSKPKCEGHHHHHH,not soluble
6,MGSDKIHHHHHHMRGRCPVSRAMMPTGPSGVEVSSVEMPGTKGVSVNLTRSLDGTVFTTLTRLSESVDMIDLVNEAVVQSLDEIAGYEAQLPSAKIATAMCFRAMQSITDYAPTTIEAADRLISNAYEIDPQPVFLAWRAYLRTFLLGESGGGNSQAISEEMERFINLAEEREPGNSIILSLAAFIRSMWLLSSEDALDLAQRSHALNPSNPYGISYLGMVHTHLGNFEEGYRLTRRANALTVPRGAKSSIRYVAMRSAACAGRYTEAIKIGEALGRDAPHFVAPKRLMGLLYMKCGRVADAEAMVETLRQHEPDYSMEKMRDAFRASPLLHRSKLGKAG,not soluble
7,MLILGLVISCGGSKDITLPNKNVKIEGDVLTFKGKPFTGNIKMNLADKMDGYAGAMSFKDGHLDGLTDLKNDKENQQVKFTVVDGKFDGELIMKDAKQRTDIVLDIKNGAIVKYLADVQGAYKYDLSFVDNLANGTMEAQGQKFEFKDGIAKGPQGQELKLTLDPESGDLTMEAMVNGKVAGKQTIPNVLTPQYLETFIFRAVTMTNR,not soluble
8,MGSDKIHHHHHHMRLVLSGYYGFYNVGDEAILQSIIKALYEEEPTLELVVLSNDPDYTRKMYGVEAVNRWDIRAIYKEIKRSSGLISGGGSLLQDKTSIKSILYYTGIMRIARFLKKPYYIYAQGIGPITKRQNRLLVKWQVSKAEYISVRDEDSFLYLKEIGIKKDIELVPDPVLACQSEGMKSEWLQKHSIQGKVIAVSVRYWDAKEDYMKKLADTLKKFKRDGYHILFVPMHGPFDQNASRDIINLMGEEAHMLPYKLDIHEKISIFSECSLLIGMRLHALILSAVANIPMVGISYDPKVDSFLQQVNQPIIGNVDGDWTAETLYNVAMKQLEQKEYIQAKLEQRVEELREQISTASRYIISDLNSKEFKKENVEFHK,not soluble
9,MGHHHHHHSHRASRKICFVCKKKGAAINCQKDQCLRNFHLPCGQERGCLSQFFGEYKSFCDKHRPTQNIQHGHVGEESCILCCEDLSQQSVENIQSPCCSQAIYHRKCIQKYAHTSAKHFFKCPQCNNRKEFPQEMLRMGIHIPDR,not soluble
10,MKRLEVSNQAKLPTQFGEFYIQCFREKGSNGSKDHLVVFTPNFSQNPLVRLHSECLTGDALGSQKCDCGGALQMALERISKEGGLVIYLRQEGRGIGLFNKVNAYALQDKGYDTIQANEMIGFKDDERDYSVAGEILEYYRIKKMRLLTNNPKKIAALEKYAEVTRESLIVCANEHNQGYLEVKKLKMGHLLLEHHHHHH,soluble
11,MGSDKIHHHHHHMGSQAIVTGASGFIGSSVARMLAHKGWTVHGIGSSHLAMEAQEQIGIKHWVQQDLTLASLQGLADKTGDPDIIIHCAGGSSVQASISNPYEDFARTANATLNVLEFMRRYSPASALVYPSSAAVYGQTSSLPIAESSTPKPFSPYGHHKRIAEILCESYSLQWQLSVSIVRLFSVYGAGLKKQLLWDACQKAEQGAYSFFGSGAEIRDWLHVEDASNLLILAAEYASPECVIINGGSGVGTSINEILKLVGSHFALVSAPTFSGKAREGDPDSYVADITKAQALGFIPSFSLSDGIRQYVEWFKKECML,not soluble
12,GSSNSHRGLAPTNVDFAFNLYQRLVALNPDKNTLISPVSISMALAMVSLGSAQTQSLQSLGFNLTETSEAEIHQSFQYLNYLLKQSDTGLEMNMGNAMFLLQKLKLKDSFLADVKQYYESEALAIDFEDWTKASQQINQHVKDKTQGKIEHVFSDLDSPASFILVNYIFLRGIWELPFSPENTREEDFYVNETSTVKVPMMVQSGSIGYFRDSVFPCQLIQMDYVGNGTAFFILPDQGQMDTVIAALSRDTIDRWGKLMTPRQVNLYIPKFSMSDTYDLKDVLEDLNIKDLLTNQSDFSGNTKDVPLTLTMVHKAMLQLDEGNVLPNSTNGAPLHLRSEPLDIKFNKPFILLLFDKFTWSSLMMSQVVNPA,soluble
13,DRCRYTLCCDGALKAVSACLHESESCLVPGDCCRGKSRLTLCSYGEGGNGFQCPTGYRQC,soluble
14,MKRFLLLLCALLSFSALAAPKADLWPYWQQSNGVNQTSISHLEWQQLLDSYLVTRGDNTLFRYNQVSFADKTKLKQYIQRLASLNPLQYRQAEQYAYWVNLYNALTVHLILDNYPITSITKLGGLFSFGPWDQGVIIINGKSLTLNDIEHRILRPIWQDPRTHYAVNCASLGCPNLQTQAFTAENTQTLLESAAKTFINSKKGVSIEGDTAKISSIYEWFAVDFGGEKEVFNHIRKYAPQYNHFSGRVKYDYDWSLNQADLEHHHHHH,not soluble
15,MPEISRDEVAHLAKLSRLALTDEELDRFAEQIDGIIGNVSAVQQVAAEGVEPMSHPHSIKTTMREDVVEQILTPEQALDQAPAVDQQRFVVPQILGEQD,not soluble
16,GPGSMFRAVYSNPAANVPASNCMTDGFPLLPPQRPHSSGSQLMRGCPLPWNDGRTLMYGVPAKNEASLQQVSYSRTLGQRWSSGSADNAAQCAAATHSTVCFASCASGANGSAGGSPVLLQPAMGVPAFVTDNQQLPSMVAQSSPTVSRLTSGMCSTSEGSATFGASTTSATSSTVGNCAATGTAATTNGSMAHTGTSPALPGFQMSVPLPTSAMTAVAAPPQQPQTCFWLSHTTGALTPIRKEDMMTISDTSASTNTHSYAMPPPPTMPSQPSSASATSVPTYLMAPQVSSFGGAMVQAFSELLSGSTAFSVPALPLPQPPRPPKTLNGLQYHLGELYEGFVKRYNPNRGFGFLTATTHVTVVNDGSNSDSATGTPIASLNNTTTAVPTTGEAETPKEYRTPVHLGDIFVHQSSMQMEGFRTLPVGGRVRFCIGYKDGQQTLQAVNVELLPQVLPPNVEMASSP,not soluble
17,MHHHHHHSSGVDLGTENLYFQSMKYILVTGGVISGIGKGIIASSVGTILKSCGLHVTSIKIDPYINIDAGTFSPYEHGEVFVLDDGGEVDLDLGNYERFLDIRLTKDNNLTTGKIYQYVINKERKGDYLGKTVQVVPHITDAIQEWVMRQALIPVDEDGLEPQVCVIELGGTVGDIESMPFIEAFRQFQFKVKRENFCNIHVSLVPQPSSTGEQKTKPTQNSVRELRGLGLSPDLVVCRCSNPLDTSVKEKISMFCHVEPEQVICVHDVSSIYRVPLLLEEQGVVDYFLRRLDLP,soluble
18,MGSDKIHHHHHHMFTMICPVCEKSVNDMQGLALHFRSGSIHGDGKHASWISAEQIEHGISDSDLSDVLIRIFRPEESLIRWARMEFIAKFYAHPHPFMEAMQKPTVPVLLGYVIEHRFFLKNWIRTLSMVIHSTTSDDAFEYEVENVATEYIGLNGKPSHLELLLRMGEALGMSRKRIMEYSPLPETSQAIEVWYGISNRYSWIDTMGAMHVLELVADRTLVDDGSPIHYFNPEILKGSDYPEAVKNFLMEGYEADVGHAGEALKIVQAATMDDLTTRSIMLRSMDAFYVYLNARMRRARMLEASWGE,not soluble
19,MGSDKIHHHHHHMPRQLPPLYALRAFEAAARLSSFTRAGEELSITQSAISRHIRTLEEHFACRLFVRSGRSLQLTEAGRVLLPGVREGFAAFERACETLCGEDDILRMKAPSTLTMRWLLACLSRFRHLQPGNEVQLTSAWMDVDHVDFNQEPFDCAVLLSDGVFPPEWEVRKLFPELLIPVGAPDLLDEEPWDVCRLASVELLHPTVDKRDWREWLERMGLGDQVSLKGGQVFDTLELGMIAAARGYGISMGDLLMVAEDVAQKRLSLPWPTAVPSGMDYYLVWPRTRRGGERLRRLSAFLEGEVAAMDLPDVEILPRL,not soluble
20,MGSDKIHHHHHHMENRKHTSLKDLAQALGVSIPTVSRALKDSPEISRELCAKAKKLAKEMNYRPNPFAMSLRKNAPRIIGVIVPDIVTHFFASILNGIENMAIDNGYFVIITTSHESFEHEKRNIENLVNMRVEGIIACLSQETTDFSHFAALKEINMPLILFDRVCLTDQFSSVIADGAQSAQMATQHLLDNGSKRVAFIGGANHLDIVKRRKHGYLEALRDNRIPIEKELVVCRKIDYEEGQIATETLLSLPQPPDAILAMNDTLAFAAMEVIKRHGLRIPDDIAIIGYTDEQHANYVEPKLSAVSHQTYKMGETACQLLIDQIKGDRTVKQVVIPTHLQIRESSIKENNKKNAVST,not soluble
21,MGSDKIHHHHHHMPTTMTTNIKNNDFKDVVFNRQSVRQFDPTVKIDREELQTIIDETISAPSACNLQSWHFVVADSADGKAKAKSVLMPFNYPQIDSCSAMIFVLGDTQSHLVYRDVWNKACEEGRITPEKRDQIFKTFLPMYENASPEFLQADAMIDSSMAAMQLLLIARAHGYDANPIAGYAADKVATTFGLDAKRYVPVMAIALGKAASEPITTTRYAGTQVTEFI,not soluble
22,MAHHHHHHHRSEQIAAVRRMVEAYNTGKTDDVADYIHPEYMNPGTLEFTSLRGPELFAINVAWVKKTFSEEARLEEVGIEERADWVRARLVLYGRHVGEMVGMAPTGRLFSGEQIHLLHFVDGKIHHHRDWPDYQGTYRQLGEPWPETEHRRP,soluble
23,AVINHDAVPVWPQPEPADATQALAVRFKPQLDVVNGCQPYPAVDPQGNTSGGLKPSGSQAAACRDMSKAQVYSRSGTYNGYYAIMYSWYMPKDSPSTGIGHRHDWENVVVWLDNAASANIVALSASAHSGYKKSFPADKSYLDGITAKISYKSTWPLDHELGFTTSAGKQQPLIQWEQMTQAARDALESTDFGNANVPFKSNFQDKLVKAFFQ,soluble

# Source: the DeepSol protein solubility set
